Assay results published in article doi:10.1101/375832, “A Ubiquitin-Binding Domain that Does Not Bind Ubiquitin” (bioRxiv, 2018).
Positions count from the first letter of the chain named. Values belong to the binder of their own block, whether it stands above or below them.

Columns and labels:
Details in all cases: both partners purified
[1] = target: T1, KAP1 RBCC (S33-K434) L376A (human, UniProt Q13263 33-434, L376A); test: co-IP; purified SMARCAD1 fragments (CUE1,2, CUE1) and KAP1 RBCC, 9.6μg of each in a 240μL binding reaction, 1 hour at 4°C; immunoprecipitated with anti-FLAG M2 affinity gel for 3 hours at 4°C
T1 construct: KAP1 (TRIM28), human, RBCC fragment S33-K434; source: E. coli, purified; construct generated by GenScript

[2] = target: T2, KAP1 RBCC (S33-K434) V380A (human, UniProt Q13263 33-434, V380A); test: as above
T2 construct: KAP1 (TRIM28), human, RBCC fragment S33-K434; source: E. coli, purified; construct generated by GenScript

[3] = target: T3, KAP1 RBCC (S33-K434) I379A (human, UniProt Q13263 33-434, I379A); test: as above
T3 construct: KAP1 (TRIM28), human, RBCC fragment S33-K434; source: E. coli, purified; construct generated by GenScript

[4] = target: T4, KAP1 RBCC (S33-K434) M335A (human, UniProt Q13263 33-434, M335A); test: as above
T4 construct: KAP1 (TRIM28), human, RBCC fragment S33-K434; source: E. coli, purified; construct generated by GenScript

[5] = target: T5, KAP1 RBCC (S33-K434), purified (human, UniProt Q13263 33-434); test: as above
T5 construct: KAP1 (TRIM28), human, residues S33-K434, RBCC domain; also called KAP1 S33-K434; Fragment 1; source: E. coli BL-21 CodonPlus (DE3)-RP, purified (Ni-NTA, Mono Q)

[6] = target: T6, KAP1 RBCC (S33-K434) E343A (human, UniProt Q13263 33-434, E343A); test: as above
T6 construct: KAP1 (TRIM28), human, RBCC fragment S33-K434; source: E. coli, purified; construct generated by GenScript

[7] = target: T7, FLAG-SMARCAD1, full-length, wild type, recombinant from E. coli (human, UniProt Q9H4L7 1-1026); test: co-IP; purified full-length SMARCAD1 and KAP1 from E. coli, 7μg of each in 280μL SK binding buffer, 200mM NaCl, 4°C; immunoprecipitated overnight with anti-FLAG M2 affinity gel
T7 construct: SMARCAD1, human, full-length; Cloned in pET28a-SUMO; source: E. coli BL-21 CodonPlus (DE3)-RIL, purified (HisTrap, Heparin, ProSwift SAX-1S)
T7 sequence (looked up): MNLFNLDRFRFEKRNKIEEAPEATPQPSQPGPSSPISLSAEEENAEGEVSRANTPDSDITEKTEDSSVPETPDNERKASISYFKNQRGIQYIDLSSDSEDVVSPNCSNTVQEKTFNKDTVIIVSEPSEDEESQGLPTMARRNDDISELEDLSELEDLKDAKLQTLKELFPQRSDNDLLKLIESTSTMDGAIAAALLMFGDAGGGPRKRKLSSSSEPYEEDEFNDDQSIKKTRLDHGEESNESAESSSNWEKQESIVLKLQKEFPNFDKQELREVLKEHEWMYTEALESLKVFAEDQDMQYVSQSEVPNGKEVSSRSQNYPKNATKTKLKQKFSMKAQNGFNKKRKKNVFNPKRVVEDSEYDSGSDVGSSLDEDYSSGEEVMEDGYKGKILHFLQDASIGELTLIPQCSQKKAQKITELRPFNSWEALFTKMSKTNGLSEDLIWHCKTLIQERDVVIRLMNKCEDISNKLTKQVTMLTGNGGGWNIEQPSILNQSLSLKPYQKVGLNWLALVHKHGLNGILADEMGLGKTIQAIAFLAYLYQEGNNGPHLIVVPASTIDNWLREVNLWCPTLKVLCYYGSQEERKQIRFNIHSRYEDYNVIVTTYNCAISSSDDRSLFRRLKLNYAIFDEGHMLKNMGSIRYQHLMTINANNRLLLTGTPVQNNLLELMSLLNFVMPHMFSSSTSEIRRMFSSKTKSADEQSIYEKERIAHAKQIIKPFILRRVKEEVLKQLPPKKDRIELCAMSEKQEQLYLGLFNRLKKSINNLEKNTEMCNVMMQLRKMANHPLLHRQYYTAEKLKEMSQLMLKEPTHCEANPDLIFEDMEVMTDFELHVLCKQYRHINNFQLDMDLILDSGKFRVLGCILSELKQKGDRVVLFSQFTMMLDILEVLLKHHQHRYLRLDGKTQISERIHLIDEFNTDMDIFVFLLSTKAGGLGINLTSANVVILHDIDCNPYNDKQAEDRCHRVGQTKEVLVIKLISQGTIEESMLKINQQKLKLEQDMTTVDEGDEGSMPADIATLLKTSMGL

T4 sequence (Q13263 33-434 M335A): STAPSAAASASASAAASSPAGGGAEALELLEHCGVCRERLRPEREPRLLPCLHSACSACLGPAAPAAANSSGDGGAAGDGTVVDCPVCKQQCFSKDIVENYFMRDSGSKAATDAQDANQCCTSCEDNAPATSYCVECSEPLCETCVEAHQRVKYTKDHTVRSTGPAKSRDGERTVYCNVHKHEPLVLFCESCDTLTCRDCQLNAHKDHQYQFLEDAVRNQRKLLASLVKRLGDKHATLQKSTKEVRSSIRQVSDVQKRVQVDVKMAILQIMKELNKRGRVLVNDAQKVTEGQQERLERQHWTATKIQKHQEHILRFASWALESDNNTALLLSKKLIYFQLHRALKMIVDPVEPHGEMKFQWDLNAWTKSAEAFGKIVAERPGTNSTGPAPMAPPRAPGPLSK
T2 sequence (Q13263 33-434 V380A): as the sequence (Q13263 33-434 M335A) above, with A303M, V348A counted along it
T6 sequence (Q13263 33-434 E343A): as the sequence (Q13263 33-434 M335A) above, with A303M, E311A counted along it
T1 sequence (Q13263 33-434 L376A): as the sequence (Q13263 33-434 M335A) above, with A303M, L344A counted along it
T3 sequence (Q13263 33-434 I379A): as the sequence (Q13263 33-434 M335A) above, with A303M, I347A counted along it

binding result [1]: binds
binding result [2]: binds
binding result [3]: binds
binding result [4]: binds
binding result [5]: binds
binding result [6]: binds
B1: FLAG-tagged SMARCAD1 CUE1,2 fragment (S95-N347), wild type (domain or fragment, human, UniProt Q9H4L7 95-347, looked up)
chain: SSDSEDVVSPNCSNTVQEKTFNKDTVIIVSEPSEDEESQGLPTMARRNDDISELEDLSELEDLKDAKLQTLKELFPQRSDNDLLKLIESTSTMDGAIAAALLMFGDAGGGPRKRKLSSSSEPYEEDEFNDDQSIKKTRLDHGEESNESAESSSNWEKQESIVLKLQKEFPNFDKQELREVLKEHEWMYTEALESLKVFAEDQDMQYVSQSEVPNGKEVSSRSQNYPKNATKTKLKQKFSMKAQNGFNKKRKKN
notes: SMARCAD1, human, residues S95-N347 encompassing both CUE domains; source: E. coli BL-21 CodonPlus (DE3)-RIL, purified (Ni-NTA, Mono Q if required)

binding result [5]: binds
B2: FLAG-tagged SMARCAD1 CUE1,2 fragment E167A (domain or fragment, human, UniProt Q9H4L7 95-347, looked up)
chain: B1 chain with E73A
notes: SMARCAD1, human, CUE1,2 fragment S95-N347; source: E. coli, purified; construct generated by GenScript

binding result [5]: binds
B3: FLAG-tagged SMARCAD1 CUE1,2 fragment P170A (domain or fragment, human, UniProt Q9H4L7 95-347, looked up)
chain: B1 chain with P76A
notes: as for B2

binding result [5]: binds
B4: FLAG-tagged SMARCAD1 CUE1,2 fragment Q171A (domain or fragment, human, UniProt Q9H4L7 95-347, looked up)
chain: B1 chain with Q77A
notes: as for B2

binding result [5]: binds
B5: FLAG-tagged SMARCAD1 CUE1,2 fragment D188A (domain or fragment, human, UniProt Q9H4L7 95-347, looked up)
chain: B1 chain with D94A
notes: as for B2

binding result [5]: binds
B6: FLAG-tagged SMARCAD1 CUE1,2 fragment L195A (domain or fragment, human, UniProt Q9H4L7 95-347, looked up)
chain: B1 chain with L101A
notes: as for B2

binding result [5]: binds
B7: FLAG-tagged SMARCAD1 CUE1,2 fragment L196A (domain or fragment, human, UniProt Q9H4L7 95-347, looked up)
chain: B1 chain with L102A
notes: as for B2

binding result [5]: binds
B8: FLAG-tagged SMARCAD1 CUE1,2 fragment Δ200-230 (domain or fragment, human, UniProt Q9H4L7 95-347, looked up)
chain: SSDSEDVVSPNCSNTVQEKTFNKDTVIIVSEPSEDEESQGLPTMARRNDDISELEDLSELEDLKDAKLQTLKELFPQRSDNDLLKLIESTSTMDGAIAAALLMFGTRLDHGEESNESAESSSNWEKQESIVLKLQKEFPNFDKQELREVLKEHEWMYTEALESLKVFAEDQDMQYVSQSEVPNGKEVSSRSQNYPKNATKTKLKQKFSMKAQNGFNKKRKKN
notes: SMARCAD1, human, CUE1,2 fragment S95-N347 with residues 200-230 deleted; source: E. coli, purified; construct generated by GenScript

binding result [5]: binds
B9: SMARCAD1 CUE1 fragment (S95-E237), wild type (domain or fragment, human, UniProt Q9H4L7 95-237, looked up)
chain: SSDSEDVVSPNCSNTVQEKTFNKDTVIIVSEPSEDEESQGLPTMARRNDDISELEDLSELEDLKDAKLQTLKELFPQRSDNDLLKLIESTSTMDGAIAAALLMFGDAGGGPRKRKLSSSSEPYEEDEFNDDQSIKKTRLDHGE
notes: SMARCAD1, human, residues S95-E237 spanning only the first CUE domain; also called wild type CUE1 fragment; source: E. coli BL-21 CodonPlus (DE3)-RIL, purified (Ni-NTA, Mono Q if required)

binding result [7]: binds
B10: KAP1, full-length, recombinant from E. coli (HA-KAP1) (natural protein, human, UniProt Q13263 1-835, looked up)
chain: MAASAAAASAAAASAASGSPGPGEGSAGGEKRSTAPSAAASASASAAASSPAGGGAEALELLEHCGVCRERLRPEREPRLLPCLHSACSACLGPAAPAAANSSGDGGAAGDGTVVDCPVCKQQCFSKDIVENYFMRDSGSKAATDAQDANQCCTSCEDNAPATSYCVECSEPLCETCVEAHQRVKYTKDHTVRSTGPAKSRDGERTVYCNVHKHEPLVLFCESCDTLTCRDCQLNAHKDHQYQFLEDAVRNQRKLLASLVKRLGDKHATLQKSTKEVRSSIRQVSDVQKRVQVDVKMAILQIMKELNKRGRVLVNDAQKVTEGQQERLERQHWTMTKIQKHQEHILRFASWALESDNNTALLLSKKLIYFQLHRALKMIVDPVEPHGEMKFQWDLNAWTKSAEAFGKIVAERPGTNSTGPAPMAPPRAPGPLSKQGSGSSQPMEVQEGYGFGSGDDPYSSAEPHVSGVKRSRSGEGEVSGLMRKVPRVSLERLDLDLTADSQPPVFKVFPGSTTEDYNLIVIERGAAAAATGQPGTAPAGTPGAPPLAGMAIVKEEETEAAIGAPPTATEGPETKPVLMALAEGPGAEGPRLASPSGSTSSGLEVVAPEGTSAPGGGPGTLDDSATICRVCQKPGDLVMCNQCEFCFHLDCHLPALQDVPGEEWSCSLCHVLPDLKEEDGSLSLDGADSTGVVAKLSPANQRKCERVLLALFCHEPCRPLHQLATDSTFSLDQPGGTLDLTLIRARLQEKLSPPYSSPQEFAQDVGRMFKQFNKLTEDKADVQSIIGLQRFFETRMNEAFGDTKFSAVLVEPPPMSLPGAGLSSQELSGGPGDGP
notes: KAP1 (TRIM28), human, full-length; also called TRIM28; TIF1β; source: E. coli BL-21 CodonPlus (DE3)-RP, purified (HisTrap, Heparin, Sephacryl S-400 gel filtration)
